Tests used:
Assay in all cases: cell-based or functional assay
[1] = biological target: F protein of hRSV strain A-2 (hRSV strain A-2)
[2] = biological target: F protein of hRSV strain B-1 (hRSV strain B-1)
[3] = biological target: F protein of hRSV strain B-1 (hRSV strain B-1); remark: listed apart in the source
[4] = biological target: F protein of hRSV strain Long (hRSV strain Long)

B1: Nanobody 15H8 (VHH)
VHH: EVQLVESGGGLVQAGGSLRLSCAASGRSFSNYVLGWFRQAPGKEREFVAAISFRGDSAIGAPSVEGRFTISRDNAKNTGYLQMNSLVPDDTAVYYCGAGTPLNPGAYIYDWSYDYWGRGTQVTVSS
RSV neutralization IC50 [1]: 218 nM
RSV neutralization IC50 [2]: 2340 nM

B2: Nanobody 7B2 (VHH)
VHH: EVQLVESGGGLVQAGDSLRLSCAASGRTFSSYAMGWFRQAPGKEREFVAAISWSDGSTYYADSVKGRFTISRDNAKNTVYLQMNSLKPEDTAVYYCAADLTSTNPGSYIYIWAYDYWGQGTQVTVSS
RSV neutralization IC50 [1]: 177 nM
RSV neutralization IC50 [2]: 2690 nM

B3: Nanobody 191E4 (VHH)
VHH: EVQLVESGGGLVQAGGSLRLSCAASGPTFSADTMGWFRQAPGKEREFVATIPWSGGIAYYSDSVKGRFTMSRDNAKNTVDLQMNSLKPEDTALYYCAGSSRIYIYSDSLSERSYDYWGQGTQVTVSS
RSV neutralization IC50 [2]: 4330 nM

B4: Nanobody NC41 (VHH)
VHH: EVQLVESGGGLVQAGGSLSISCAASGGSLSNYVLGWFRQAPGKEREFVAAINWRGDITIGPPNVEGRFTISRDNAKNTGYLQMNSLAPDDTAVYYCGAGTPLNPGAYIYDWSYDYWGRGTQVTVSS
Neutralization IC50 (first assay) [3]: 4710 nM
Neutralization IC50 (second assay) [3]: 3290 nM
RSV neutralization IC50 [1]: 26 nM
RSV neutralization IC50 [2]: 4000 nM

B5: Nanobody 15B3 (VHH)
VHH: EVQLVESGGGLVQPGGSLRLSCAASGLTLDYYALGWFRQAPGKEREGVSCISSSDHSTTYTDSVKGRFTISWDNAKNTLYLQMNSLKPGDTAVYYCAADPALGCYSGSYYPRYDYWGQGTQVTVSS
RSV neutralization IC50 [2]: 1270 nM

B6: NC41v06 (VHH)
VHH: EVQLLESGGGLVQPGGSLRLSCAASGGSLSNYVLGWFRQAPGKGREFVAAINWRDDITIGPPNVEGRFTISRDNAKNTLYLQMNSLRPEDTAVYYCGAGTPLNPGAYIYDWSYDYWGQGTLVTVSS
Neutralization IC50 (first assay) [3]: 806 nM

B7: NC41v17 (VHH)
VHH: EVQLLESGGGLVQPGGSLRLSCAASGGSLSNYVLGWFRQAPGKGREFVAAINWRGDITIGPPNVEGRFTISRDNSKNTLYLQMNSLRPEDTAVYYCGAGTPLNPGAYIYDWSYDYWGQGTLVTVSS
Neutralization IC50 (first assay) [4]: 249 nM
Neutralization IC50 (second assay) [4]: 149 nM
Neutralization IC50 (first assay) [3]: 677 nM
Neutralization IC50 (second assay) [3]: 346 nM

B8: Nanobody 191D3 (VHH)
VHH: EVQLVESGGGLVQAGGSLRLSCEASGRTYSRYGMGWFRQAPGKEREFVAAVSRLSGPRTVYADSVKGRFTISRDNAENTVYLQMNSLKPEDTAVYTCAAELTNRNSGAYYYAWAYDYWGQGTQVTVSS
RSV neutralization IC50 [1]: 227 nM

B9: Nanobody 1E4 (VHH)
VHH: EVQLVESGGGLVQAGGSLRLSCEASGRTFSSYGMGWFRQAPGKEREFVAAVSRLSGPRTVYADSVKGRFTISRDNAENTVYLQMNSLKPEDTAVYTCAAELTNRNPGAYYYTWAYDYWGQGTQVTVSS
RSV neutralization IC50 [1]: 298 nM

B10: Nanobody NC23 (VHH)
VHH: EVQLVESGGGLVQPGGSLRLSCAASGRTFSSIAMGWFRQAPGKEREFVAAISWSRGRTFYADSVKGRFIISRDDAANTAYLQMNSLKPEDTAVYYCAVDTASWNSGSFIYDWAYDHWGQGTQVTVSS
RSV neutralization IC50 [1]: 109 nM

— patent US20150118233A1 (Ablynx, published 2015)
